Experimental data as given in the supplement of paper PMC10567573.

B1: WDFY2 (parent)
chain: FWNFKQMWDSKKIGLRQHHCRKCG

Variants of: B1
Assay: protein stability index of a GFP-peptide fusion (GPS, HEK-293T) (PSI 1-6); higher = more stable
Conditions: c terminus: a fixed tail appended
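Further: lentivirally expressed fusions sorted by FACS into six bins by GFP to DsRed ratio, PSI derived from sequencing read proportions per bin multiplied by bin number.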

Protein stability index of substitutions, site by site:
I13: R 2.01; K 1.99; F 2.15; T 1.66; N 2.42; Q 1.73; P 1.86; C 2.72; V 2.02; M 2.29; G 1.99; Y 2.25; D 2.55; W 1.67; S 2.54; A 2.52; H 1.81; E 2.28
K5: H 1.66; T 1.5; A 1.81; R 1.24; Q 2.4; E 2.22; P 1.98; G 1.5; W 1.38; L 1.83; D 1.96; C 2.66; S 1.52; Y 1.24; F 1.38; M 2.6; V 2.33; N 1.76; I 1.7
Q6: K 2.44; N 2.27; D 1.91; E 1.89; F 1.53; G 2.79; P 2.04; S 1.85; L 2.03; A 1.56; H 2.27; W 1.28; V 1.51; R 1.79; C 2.34; M 1.93; I 1.68; T 1.82; Y 1.6
M7: Y 2.34; Q 2.21; K 1.69; A 2.19; D 2.41; T 2.11; L 2; G 1.68; V 1.71; E 2.82; N 1.62; W 1.74; S 2.57; C 2.09; F 2.09; R 2.33; P 2.06; H 2.48; I 1.92
D9: C 1.2; P 2.43; S 1.28; K 2.05; Q 1.84; H 2.63; E 2.3; G 1.77; R 1.73; Y 2.95; T 1; W 1.81; I 2.56; F 1.54; N 1.81; V 3.81
F4: Y 1.99; V 2.33; W 2.26
W8: S 2.14; E 3.3; I 1.8; G 2.48; D 3; Y 2.04; F 2.25; P 2.16; N 3.72; T 2.07; C 2.34; K 2.69; R 2.58; H 2.79; M 3.04; A 2.12; L 2.59; Q 2.39; V 2.22
K12: Q 2.1; V 2.42; W 2.3; N 1.85; F 1.84; D 1.88; P 2.03; M 1.73; Y 1.53; C 2.79; T 2.08; I 2.06; A 1.68; R 1.71; H 2.01; G 1.58; L 1.89; E 2.05; S 2.62
S10: T 1.73; A 1.32; Q 2.65; V 1.78; P 2.17; I 2.94; H 2.55; C 1.94; F 1.72; D 1.75; M 1.76; Y 1.72; L 1.67; K 2.04; R 1.53; E 1.72
K11: C 2.65; W 1.51; F 2.48; V 1.99; G 2.44; S 1.25; Y 2.71; M 1.83; Q 2.54; A 2.93; L 1.73; E 2.61; D 2.1; R 1.74; H 2.12; P 2.19; I 2.5; T 1.76; N 2.7
